Laboratory results taken from article PMC9122904, “Insights into the client protein release mechanism of the ATP-independent chaperone Spy” (Nature Communications, 2022).
Where a chain is given by its changes, count along the chain named. In names and notes the source's numbering stands.

Experiments:
Experiment in all cases: BLI; Octet RED96; client biotinylated and loaded on streptavidin sensors; Spy or Spy variant in solution at 0.25, 0.5, 1, 1.5 and 2 μM; 40 mM HEPES, 150 mM NaCl, pH 7.5; Kd calculated as koff/kon
Conditions in all cases: both partners purified
Spy_(29-138) = molecular target: T1, Spy_(29-138) (UniProt P77754 52-161)
T1 construct: source: E. coli BL21 (DE3), purified (Ni-NTA, cation exchange, SEC); not shown: His6, N-terminal, cleaved; SUMO, N-terminal, cleaved
T1 sequence (looked up): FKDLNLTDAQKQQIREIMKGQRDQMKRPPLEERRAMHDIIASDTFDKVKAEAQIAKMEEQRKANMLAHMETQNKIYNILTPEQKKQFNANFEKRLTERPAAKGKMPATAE
Procedure, shortened: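 Association was recorded with an Octet RED96 as streptavidin sensors carrying client proteins, biotinylated with EZ-link NHS-biotin at a 1:1 molar ratio, sat in 40 mM HEPES, 150 mM NaCl, pH 7.5 with 0.25 to 2 μM of the analyte protein (0.25, 0.5, 1, 1.5 and 2 μM). Dissociation followed after transfer to analyte-free buffer. Both wavelength-shift phases were fitted in SigmaPlot 12.0 to obtain koff and the observed association rate, whose dependence on analyte concentration yielded kon, with Kd defined as koff divided by kon.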

Spy D26K = molecular target: T2, Spy D26K (UniProt P77754 24-161, D26K)
T2 construct: source: E. coli BL21 (DE3), purified (Ni-NTA, cation exchange, SEC); not shown: His6, N-terminal, cleaved; SUMO, N-terminal, cleaved
T2 sequence (looked up): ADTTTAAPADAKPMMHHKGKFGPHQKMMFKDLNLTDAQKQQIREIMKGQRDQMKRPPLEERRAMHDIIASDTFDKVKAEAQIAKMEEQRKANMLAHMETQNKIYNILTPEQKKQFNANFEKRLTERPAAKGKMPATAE

Spy D26R = molecular target: T3, Spy D26R (UniProt P77754 24-161, D26R)
T3 construct: source: E. coli BL21 (DE3), purified (Ni-NTA, cation exchange, SEC); not shown: His6, N-terminal, cleaved; SUMO, N-terminal, cleaved
T3 sequence (looked up): T2 sequence (looked up) with K26R

Spy D26A = molecular target: T4, Spy D26A (UniProt P77754 24-161, D26A)
T4 construct: source: E. coli BL21 (DE3), purified (Ni-NTA, cation exchange, SEC); not shown: His6, N-terminal, cleaved; SUMO, N-terminal, cleaved
T4 sequence (looked up): T2 sequence (looked up) with K26A

Spy D26E = molecular target: T5, Spy D26E (UniProt P77754 24-161, D26E)
T5 construct: source: E. coli BL21 (DE3), purified (Ni-NTA, cation exchange, SEC); not shown: His6, N-terminal, cleaved; SUMO, N-terminal, cleaved
T5 sequence (looked up): T2 sequence (looked up) with K26E

- kon (Spy_(29-138)): 286000 M⁻¹ s⁻¹
- Kd (Spy D26K): 257 nM
- Kd (Spy D26R): 286 nM
- Kd (Spy D26A): 274 nM
- Kd (Spy D26E): 637 nM
B1: Im7 H40W L53A I54A (natural protein)
chain: MELKNSISDYTEAEFVQLLKEIEKENVAATDDVLDVLLEWFVKITEHPDGTDAAYYPSDNRDDSPEGIVKEIKEWRAANGKPGFKQG
modifications: biotin (EZ-link NHS-biotin, 1:1 molar ratio of biotin to protein)
notes: Im7 (colicin E7 immunity protein) with H40W L53A I54A; Spy was made with an N-terminal His6-SUMO tag that was cleaved; also called Im7AAW; partially folded client; source: purified by a similar procedure to Spy
